According to patent US20150175693A1 (UNIVERSIT TSKLINIKUM REGENSBURG, published 2015):

Biological target: T1, IL-3 receptors on human basophils, pDC, monocytes and B cells (PBMC) (human, UniProt P26951 19-378; P32927 17-897)
T1 construct: whole, on cells; Natural receptor on primary human blood cells; the cells were sorted by CD123 and HLA-DR staining; also called CD123
Experiment: flow cytometry, biotinylated hIL-3 on human PBMC, avidin-FITC
Protocol: Binding of IL-3 to human peripheral blood mononuclear cells (PBMC) was analysed using commerically available biotinylated IL-3. For the assay, biotinylated IL-3 was incubated with PBMC and binding detected via Avidin-Fluorescein (biotinylated hIL-3 and other reagents obtained from R&D Systems, Inc., Cat. No. NF300).
10 μl of the isolated and incubated PBMC cell preparation (10 Mio. cells/ml) were added to each of the preincubated IL-3/antibody or negative control samples and further incubated for 1 hour at 4° C. For the detection of IL-3 bound to PBMC, 10 μl avidin-FITC reagent together with anti-human CD123 PE-Cy5 (1:10) and anti-HLA-DR II APC (1:50) were added and the samples incubated for a further 30 min at 4° C. Cells were washed twice with 2 ml 1×RDF1 buffer and resuspended in 200 μl of this buffer per sample and FACS analysis performed. Basophils were identified by high expression of CD123 and absence of HLA-DR. Plasmacytoid dendritic cells (pDC) were identified by high expression of CD123 and HLA-DR. Monocytes and B cells were identified by light scatter properties and expression of HLA-DR.

T1 sequence (P26951 19-378, chain 1 of 2): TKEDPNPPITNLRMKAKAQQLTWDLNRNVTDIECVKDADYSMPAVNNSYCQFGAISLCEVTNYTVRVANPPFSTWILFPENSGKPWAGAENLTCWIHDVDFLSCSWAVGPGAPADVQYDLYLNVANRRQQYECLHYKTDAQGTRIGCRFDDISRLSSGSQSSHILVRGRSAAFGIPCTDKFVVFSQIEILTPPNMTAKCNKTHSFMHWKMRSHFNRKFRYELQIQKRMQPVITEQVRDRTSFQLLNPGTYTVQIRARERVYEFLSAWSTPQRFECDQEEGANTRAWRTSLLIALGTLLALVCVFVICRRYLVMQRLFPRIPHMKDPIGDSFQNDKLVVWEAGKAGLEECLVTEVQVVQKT
T1 sequence (P32927 17-897, chain 2 of 2): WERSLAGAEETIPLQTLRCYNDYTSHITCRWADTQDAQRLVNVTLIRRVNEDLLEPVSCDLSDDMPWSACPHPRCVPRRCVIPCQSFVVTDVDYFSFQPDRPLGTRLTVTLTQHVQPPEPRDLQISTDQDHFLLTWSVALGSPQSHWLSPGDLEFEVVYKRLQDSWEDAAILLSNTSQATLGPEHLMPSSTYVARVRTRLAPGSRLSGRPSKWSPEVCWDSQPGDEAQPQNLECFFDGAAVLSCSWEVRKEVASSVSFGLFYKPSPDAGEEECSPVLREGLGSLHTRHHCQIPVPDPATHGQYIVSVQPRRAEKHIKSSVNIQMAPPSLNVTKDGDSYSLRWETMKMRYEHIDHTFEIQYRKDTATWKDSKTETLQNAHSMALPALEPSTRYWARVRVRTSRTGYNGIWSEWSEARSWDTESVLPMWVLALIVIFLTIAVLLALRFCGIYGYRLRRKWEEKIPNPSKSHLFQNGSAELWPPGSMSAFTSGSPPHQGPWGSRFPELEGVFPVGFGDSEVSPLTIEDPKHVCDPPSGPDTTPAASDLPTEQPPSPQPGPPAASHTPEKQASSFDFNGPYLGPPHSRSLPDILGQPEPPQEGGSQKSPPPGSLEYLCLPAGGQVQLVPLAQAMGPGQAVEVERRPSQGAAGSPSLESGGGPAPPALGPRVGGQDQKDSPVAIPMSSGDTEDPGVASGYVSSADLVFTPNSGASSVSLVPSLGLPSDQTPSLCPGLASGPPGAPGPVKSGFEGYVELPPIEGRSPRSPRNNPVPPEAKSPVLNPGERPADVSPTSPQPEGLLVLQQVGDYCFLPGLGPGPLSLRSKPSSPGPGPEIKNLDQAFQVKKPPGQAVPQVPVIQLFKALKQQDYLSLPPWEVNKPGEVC

binding result: binds
B1: biotinylated hIL-3 (R&D Systems, Cat. No. NF300) (ligand)
chain: APMTQTTPLKTSWVNCSNMIDEIITHLKQPPLPLLDFNNLNGEDQDILMENNLRRPNLEAFNRAVKSLQNASAIESILKNLLPCLPLATAAPTRHPIHIKDGDWNEFRRKLTFYLKTLENAQAQQTTLSLAIF
modifications: biotinylated (sites not given)
notes: Bought reagent; also called biotinylated IL-3
